Data as given in patent publication US20240279318A1 (NANJING LEGEND BIOTECH, published 2024).
Where two headings read alike, the source gives them in different places.

Tests used:
[1] = target: T1, AFP158/HLA-A*02:01 complex (human); assay: SPR, antibody captured via mIgG2a-Fc, complex as analyte
T1 construct: biotinylated on the BSP by BirA for ELISA and panning; also called biotinylated AFP158/HLA-A*02:01 complex; Bio-AFP158
Description: (§1) The binding affinity between selected antibodies and AFP158/HLA-A*02:01 complex was determined by surface plasmon resonance (SPR) on a BIAcore T200 instrument (GE Healthcare). The experiment was carried out as follows. The purified sdAb/scFv-mIgG2aFc protein were captured through mIgG2a-Fc onto the sensorchip. […] On-rate (kₐ) and off-rate (kd) were calculated based on association and dissociation curve, and were used to estimate the equilibrium dissociation constant (KD).

[2] = target: T1, AFP158/HLA-A*02:01 complex; assay: SPR, scFv-mIgG2aFc from supernatant captured, complex as analyte
Description: as §1
(§2) Humanized heavy chains and light chains were combined, and used to produce a series of humanized antibodies. These antibodies were synthesized as scFv-mIgG2aFc and transiently produced using HEK293 cells. The antibodies in the supernatant were subjected to SPR affinity assessment.

[3] = target: T2, OR6C1 peptide loaded T2 cells (human, UniProt P61769 21-119); assay: flow cytometry, peptide-loaded T2 cells
T2 construct: whole, on cells; also called OR6C1/T2

[4] = target: T3, PTP4A1 peptide loaded T2 cells (human, UniProt P61769 21-119); assay: flow cytometry, peptide-loaded T2 cells
T3 construct: whole, on cells; also called PTP4A1-pulsed T2 cells

[5] = target: T4, RP1 peptide loaded T2 cells (human, UniProt P61769 21-119); assay: flow cytometry, peptide-loaded T2 cells
T4 construct: whole, on cells; also called RP1/T2

[6] = target: T5, RCL1 peptide loaded T2 cells (human); assay: flow cytometry, peptide-loaded T2 cells
T5 construct: whole, on cells; also called RCL1/T2

[7] = target: T6, ZNF566 peptide loaded T2 cells (human, UniProt P61769 21-119); assay: flow cytometry, peptide-loaded T2 cells
T6 construct: whole, on cells; also called ZNF566/T2

[8] = target: T7, ARNTL peptide loaded T2 cells (human, UniProt P61769 21-119); assay: flow cytometry, peptide-loaded T2 cells
T7 construct: whole, on cells; also called ARNTL/T2

[9] = target: T8, ATG9A peptide loaded T2 cells (human, UniProt P61769 21-119); assay: flow cytometry, peptide-loaded T2 cells
T8 construct: whole, on cells; also called ATG9A/T2

[10] = target: T9, BRCA2 peptide loaded T2 cells (human); assay: flow cytometry, peptide-loaded T2 cells
T9 construct: whole, on cells; also called BRCA2/T2

[11] = target: T10, CDC14A peptide loaded T2 cells (human, UniProt P61769 21-119); assay: flow cytometry, peptide-loaded T2 cells
T10 construct: whole, on cells; also called CDC14A/T2

[12] = target: T11, NR2E1 peptide loaded T2 cells (human, UniProt P61769 21-119); assay: flow cytometry, peptide-loaded T2 cells
T11 construct: whole, on cells; also called NR2E1/T2

[13] = target: T12, OR1I1 peptide loaded T2 cells (human, UniProt P61769 21-119); assay: flow cytometry, peptide-loaded T2 cells
T12 construct: whole, on cells; also called OR1I1/T2

[14] = target: T13, OR51B6 peptide loaded T2 cells (human, UniProt P61769 21-119); assay: flow cytometry, peptide-loaded T2 cells
T13 construct: whole, on cells; also called OR51B6/T2

[15] = target: T1, AFP158/HLA-A*02:01 complex; assay: SPR, scFv-mIgG2aFc from supernatant captured, complex as analyte; remark: listed apart in the source
Description: as §1, §2

[16] = target: ARNTL peptide/HLA-A*02:01 complex (recombinant) (human); assay: SPR
[17] = target: ATG9A peptide/HLA-A*02:01 complex (recombinant) (human); assay: SPR
[18] = target: BRCA2 peptide/HLA-A*02:01 complex (recombinant) (human); assay: SPR
[19] = target: CDC14A peptide/HLA-A*02:01 complex (recombinant) (human); assay: SPR
[20] = target: NR2E1 peptide/HLA-A*02:01 complex (recombinant) (human); assay: SPR
[21] = target: OR1I1 peptide/HLA-A*02:01 complex (recombinant) (human); assay: SPR
[22] = target: OR51B6 peptide/HLA-A*02:01 complex (recombinant) (human); assay: SPR
[23] = target: OR6C1 peptide/HLA-A*02:01 complex (recombinant) (human); assay: SPR
[24] = target: PTP4A1 peptide/HLA-A*02:01 complex (recombinant) (human); assay: SPR
[25] = target: RP1 peptide/HLA-A*02:01 complex (recombinant) (human, UniProt P16213 21-119 (Pongo pygmaeus entry)); assay: SPR
[26] = target: RCL1 peptide/HLA-A*02:01 complex (recombinant) (human, UniProt P16213 21-119 (Pongo pygmaeus entry)); assay: SPR
[27] = target: ZNF566 peptide/HLA-A*02:01 complex (recombinant) (human); assay: SPR
[28] = target: T1, AFP158/HLA-A*02:01 complex; assay: SPR; vs AS170036 VL1VH1
[29] = target: T1, AFP158/HLA-A*02:01 complex; assay: SPR; vs AS170036 VL1VH1; remark: listed apart in the source
Description: (§3) The experiment was carried out as follows. The crude scFv protein were captured onto the sensorchip. Different concentrations (320, 160, 40 nM) of AFP158/HLA-A*02:01 complex flowed over the sensorchip surface, and were allowed to bind the antibody fragment for 100 s followed by injection of the running buffer to allow dissociation of the complex. On-rate (kd) and off-rate (kd) were calculated based on association and dissociation curve, and were used to estimate the equilibrium dissociation constant (KD).

[30] = target: T1, AFP158/HLA-A*02:01 complex; assay: SPR, crude scFv captured;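 note: Peptide–MHC complex flowed at several concentrations over sensorchip-captured scFv, Kd derived from on- and off-rates obtained from the association and dissociation curves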
Description: as §3

Binder	Kd [1] [nM]	koff [1] [s⁻¹]	kon [1] [M⁻¹ s⁻¹]	Kd [2] [nM]	koff [2] [s⁻¹]	kon [2] [M⁻¹ s⁻¹]	binding result [3]	binding result [4]	binding result [5]	binding result [6]	binding result [7]	binding result [8]	binding result [9]	binding result [10]	binding result [11]	binding result [12]	binding result [13]	binding result [14]	also measured
AS190259 scFv-mIgG2aFc (Fc fusion, not shown: a dimerising Fc or GST, Camel scFv; i647-labelled for flow cytometry) QSVVTQPSAVSVSLEETATITCQGGGYYVNWYQQKPGQAPVLVIYLNTNRPSGIPERFSASKSGGTATLTINGAQAEDEAAYYCQSADSSGNSAVFGGGTHLTVLGGGGSGGGGSGGGGSQVQLVQSGGGLVQPGGSLRLSCAASGFTFSSYAMSWVRQAPGKGLEWVSAINSGGGSTYYADSVKGRFTISRDNAKNTLYLQLNSLKTEDTAMYYCAKAASGYGGSWWGDATLDAWGQGTLVTVSS	390	0.14	350000	220	0.25	1.1e+06	–	–	–	–	–	–	–	–	–	–	–	–	–
AS170036 VL1VH1-VHS57Q (scFv) scFv: QSALTQPRSVSGSPGQSVTISCAGTSSDVGSENYVSWYQQHPGKAPKLMIYQVNKRASGVPDRFSGSKSGNTASLTISGLQAEDEADYYCASYRSSDHNIVFGGGTKLTVLGGGGSGGGGSGGGGSEVQLVESGGGLVQPGGSLRLSCAASGFTFSSYAMSWVRQAPGKGLEWVSTINSGTGQPYYADSVKGRFTISRDNSKNTLYLQMNSLRAEDTAVYYCAKNFFDGSWFLGPPAMDYWGQGTLVTVSSHHHHHH	–	–	–	–	–	–	–	–	–	–	–	–	–	–	–	–	–	–	binding result [16]: no binding; binding result [17]: no binding; binding result [18]: no binding; binding result [19]: no binding; binding result [20]: no binding; binding result [21]: no binding; binding result [22]: no binding; binding result [23]: no binding; binding result [24]: no binding; binding result [25]: no binding; binding result [26]: no binding; binding result [27]: no binding; Affinity increase [28]: > 2 fold; Affinity increase [29]: 2.4 fold; Kd [30]: 100 nM
AS170036 VL1VH1-VHS57R (scFv) scFv: QSALTQPRSVSGSPGQSVTISCAGTSSDVGSENYVSWYQQHPGKAPKLMIYQVNKRASGVPDRFSGSKSGNTASLTISGLQAEDEADYYCASYRSSDHNIVFGGGTKLTVLGGGGSGGGGSGGGGSEVQLVESGGGLVQPGGSLRLSCAASGFTFSSYAMSWVRQAPGKGLEWVSTINSGTGRPYYADSVKGRFTISRDNSKNTLYLQMNSLRAEDTAVYYCAKNFFDGSWFLGPPAMDYWGQGTLVTVSSHHHHHH	–	–	–	–	–	–	–	–	–	–	–	–	–	–	–	–	–	–	binding result [16]: no binding; binding result [17]: no binding; binding result [18]: no binding; binding result [19]: no binding; binding result [20]: no binding; binding result [21]: no binding; binding result [22]: no binding; binding result [23]: no binding; binding result [24]: no binding; binding result [25]: no binding; binding result [26]: no binding; binding result [27]: no binding; Affinity increase [28]: > 2 fold; Affinity increase [29]: 2.8 fold; Kd [30]: 88 nM
AS190259 VL1VH1 scFv-mIgG2aFc (Fc fusion, not shown: a dimerising Fc or GST, Humanized) SSELTQDPAVSVALGQTVRITCQGGGYYVNWYQQKPGQAPVLVIYLNTNRPSGIPDRFSGSSSGNTASLTITGAQAEDEADYYCQSADSSGNSAVFGGGTKLTVLGGGGSGGGGSGGGGSEVQLVESGGGLVQPGGSLRLSCAASGFTFSSYAMSWVRQAPGKGLEWVSAINSGGGSTYYADSVKGRFTISRDNSKNTLYLQMNSLRAEDTAVYYCAKAASGYGGSWWGDATLDAWGQGTLVTVSS	–	–	–	200	0.39	2e+06	–	–	–	–	–	–	–	–	–	–	–	–	–
AS190259 VL2VH1 scFv-mIgG2aFc (Fc fusion, not shown: a dimerising Fc or GST; small tags and cut ends) scFv: SSELTQDPAVSVALGQTVTITCQGGGYYVNWYQQKPGQAPVLVIYLNTNRPSGIPDRFSGSSSGNTASLTITGAQAEDEAAYYCQSADSSGNSAVFGGGTKLTVLGGGGSGGGGSGGGGSEVQLVESGGGLVQPGGSLRLSCAASGFTFSSYAMSWVRQAPGKGLEWVSAINSGGGSTYYADSVKGRFTISRDNSKNTLYLQMNSLRAEDTAVYYCAKAASGYGGSWWGDATLDAWGQGTLVTVSS	–	–	–	220	0.3	1.4e+06	–	–	–	–	–	–	–	–	–	–	–	–	–

Now from value to binder, other results behind:

Kd [1] [nM]	koff [1] [s⁻¹]	kon [1] [M⁻¹ s⁻¹]	Kd [2] [nM]	koff [2] [s⁻¹]	kon [2] [M⁻¹ s⁻¹]	binding result [3]	binding result [4]	binding result [5]	binding result [6]	binding result [7]	binding result [8]	binding result [9]	binding result [10]	binding result [11]	binding result [12]	binding result [13]	binding result [14]	Binder	also measured
71	0.005	71000	–	–	–	no binding (tested: 30 or 50 nM)	no binding (tested: 30 or 50 nM)	no binding (tested: 30 or 50 nM)	no binding (tested: 30 or 50 nM)	no binding (tested: 30 or 50 nM)	no binding (tested: 30 or 50 nM)	no binding (tested: 30 or 50 nM)	no binding (tested: 30 or 50 nM)	no binding (tested: 30 or 50 nM)	no binding (tested: 30 or 50 nM)	no binding (tested: 30 or 50 nM)	no binding (tested: 30 or 50 nM)	AS148691 scFv-mIgG2aFc (Fc fusion, not shown: a dimerising Fc or GST, i647-labelled for flow cytometry) DIQMTQSPSSLSASVGDRVTITCRASQSVSSAVAWYQQKPGKAPKLLIYSASSLYSGVPSRFSGSRSGTDFTLTISSLQPEDFATYYCQQYYGAYLITFGQGTKVEIKGGGGSGGGGSGGGGSEVQLVESGGGLVQPGGSLRLSCAASGFNLYYSSIHWVRQAPGKGLEWVASIYSSYGSTSYADSVKGRFTISADTSKNTAYLQMNSLRAEDTAVYYCARVGPGYYGIDYWGQGTLVTVSS	–
39	0.0042	110000	–	–	–	no binding (tested: 30 or 50 nM)	no binding (tested: 30 or 50 nM)	no binding (tested: 30 or 50 nM)	no binding (tested: 30 or 50 nM)	no binding (tested: 30 or 50 nM)	no binding (tested: 30 or 50 nM)	no binding (tested: 30 or 50 nM)	no binding (tested: 30 or 50 nM)	no binding (tested: 30 or 50 nM)	no binding (tested: 30 or 50 nM)	no binding (tested: 30 or 50 nM)	no binding (tested: 30 or 50 nM)	AS179723 scFv-mIgG2aFc (Fc fusion, not shown: a dimerising Fc or GST, Camel scFv; i647-labelled for flow cytometry) QAGLTQPPSMSGSPRQSVTISCTGSSNNIGGNYVNWYQHLPGTAPKLLIYDNKNRPSGVPEQISGSKSGSSASLTITGLQAEDEGDYYCASWDDSLSAVVFGGGTHLTVLGGGGSGGGGSGGGGSEVQLVESGGGLVQPGGSLRLSCAASGFTFLNYAMSWVRQAPGKGLEWVSSNSGAGSTYYSDSVKGRFTISRDYAKNVVYLQLNSLKTEDTGMYYCAKGTNVGSWSSLHYWGQGTQVTVSS	Kd [15]: 28 nM; koff [15]: 0.0041 s⁻¹; kon [15]: 150000 M⁻¹ s⁻¹
260	0.07	270000	–	–	–	no binding (tested: 30 or 50 nM)	no binding (tested: 30 or 50 nM)	no binding (tested: 30 or 50 nM)	no binding (tested: 30 or 50 nM)	no binding (tested: 30 or 50 nM)	no binding (tested: 30 or 50 nM)	no binding (tested: 30 or 50 nM)	no binding (tested: 30 or 50 nM)	no binding (tested: 30 or 50 nM)	no binding (tested: 30 or 50 nM)	no binding (tested: 30 or 50 nM)	no binding (tested: 30 or 50 nM)	AS167830 sdAb-mIgG2aFc (Fc fusion, not shown: a dimerising Fc or GST, i647-labelled for flow cytometry) QVKLVESGGGSVQAGGSLRLSCAASRSSEYMNRRFCMGWFRQASGKEREGVAVVYIGGGRTYYADSVKGRFTISQDNAKNTLYLQMNNLKPEDTAMYYCTADVDPYESSWSRDLGYWGQGTQVTVSS	–
